These are literature values, as cited in publication PMC2917178.

The data set concerns the target Lys66 (UniProt position 148, FTKKMKENAKK). Particulars: native (folded) state.

Regarding “Staphylococcal nuclease V66K variant (Staphylococcus aureus; V66K)”, the pKa is 6.4.
